The target in experiment [1] is ERK1, not dual-phosphorylated (inactive ERK dimer in U0126-inhibited embryos) (L. pictus (endogenous in eggs and embryos)). The experiment is described as follows: native gel or EMSA; whole-cell extracts of eggs/embryos at times after fertilization (control, or U0126 15 min before fertilisation); non-denaturing gel to maintain ERK as a dimer; Western blot with anti-dual-phosphorylated ERK or anti-ERK antibodies.

Experiment [2] has as its target dual-phosphorylated ERK1 (fully activated ERK bis-phosphodimer) (L. pictus (endogenous in eggs and embryos)). The experiment is described as above.
Experiment [3] has as its target cdk2 (cyclin-associated kinase activity in sea urchin cell extracts) (L. pictus (endogenous in eggs and embryos)).

In the case of “ERK1, not dual-phosphorylated (inactive ERK dimer in U0126-inhibited embryos) (enzyme)”, in experiment [1], the stoichiometry N – broadly, the number of molecules, sites or subunits per partner or assembly – turned out to be 2.

“dual-phosphorylated ERK1 (fully activated ERK bis-phosphodimer) (enzyme)” displayed a stoichiometry N in experiment [2] of 2.

On to “p27^kip1 recombinant protein (from UniProt P46414 1-197) (natural protein)”, for which the inhibition of Rb C-terminus phosphorylation in the 4 min whole-cell extract with a mixture of Rb and MBP as substrates, with and without p27^kip1 in experiment [3] is 97%.

For the origin of these results see paper PMC2789238.
